Experimental data reported in publication PMC12041390, “Nanobody-mediated targeting of Plasmodium falciparum PfPIMMS43 can block malaria transmission in mosquitoes” (Communications Biology, 2025).

molecular target: T1, endogenous PfPIMMS43 produced by P. falciparum NF54 ookinetes (Plasmodium falciparum NF54 (entry 3D7, …, UniProt C6KT40)); assay: far-Western, overlay or dot blot; reduced lysates of P. falciparum NF54-infected An. coluzzii midguts (18 h post blood meal) on 10% SDS-PAGE, blotted to PVDF, probed with nanobody, detected with anti-MYC antibody; non-infected blood-fed midguts as control; settings: one partner purified
T1 construct: PfPIMMS43 (PSOP25) of Plasmodium falciparum NF54, a 505-amino acid protein with an N-terminal signal peptide and a C-terminal GPI anchor; seen as a ~60 kDa band; GPI-anchored surface protein of ookinetes; also called ~60 kDa PfPIMMS43 protein; PSOP25; source: endogenous, lysate of P. falciparum NF54-infected An. coluzzii midguts, 18 h post blood feeding
T1 sequence (C6KT40 25-505): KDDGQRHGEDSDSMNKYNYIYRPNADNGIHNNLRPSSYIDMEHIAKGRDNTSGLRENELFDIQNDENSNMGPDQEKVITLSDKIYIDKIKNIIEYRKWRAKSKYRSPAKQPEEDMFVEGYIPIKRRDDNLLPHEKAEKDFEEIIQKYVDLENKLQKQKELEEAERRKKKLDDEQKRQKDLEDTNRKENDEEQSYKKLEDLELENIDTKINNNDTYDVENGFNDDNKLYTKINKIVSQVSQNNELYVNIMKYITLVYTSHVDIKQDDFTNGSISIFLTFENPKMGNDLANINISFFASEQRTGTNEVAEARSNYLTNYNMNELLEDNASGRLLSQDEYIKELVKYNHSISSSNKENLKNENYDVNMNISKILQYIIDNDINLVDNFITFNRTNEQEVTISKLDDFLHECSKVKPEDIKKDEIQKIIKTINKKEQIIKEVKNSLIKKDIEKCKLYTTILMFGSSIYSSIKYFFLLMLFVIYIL

Row | Binder | binding result
1 | PfPIMMS43 nanobody C12 (VHH, llama VHH; From an immune llama library (Eurogentec, pQ81 phagemid)) VHH: EVQLVESGGGLVQAGGSLRLSCVDSGRTLSSYTMGWFRQAPGKEREFVAAVHYTGRRTYYADSVKGRFTISRDNDKNTVLLQMNSLKPEDTAVYYCAATEPPHSDYSTRLYNYHYWGQGTQVTVSS | binds

molecular target: T2, recombinant Thioredoxin-His-tagged PfPIMMS43 (amino acids 26-481), full-length (FL) recombinant PfPIMMS43 (Plasmodium falciparum, 3D7 entry (NF54 …, UniProt C6KT40)); assay: ELISA; dose response ELISA; MaxiSorp plates coated with 2 ug/mL recombinant PfPIMMS43 in PBS overnight, blocked with 4% skimmed milk; VHH from 1000 nM in serial 1:10 dilutions, 1 h at room temperature; detected with rabbit anti-VHH and donkey anti-rabbit HRP, OPD, 490 nm; settings: both partners purified
T2 construct: PfPIMMS43 (PSOP25) of Plasmodium falciparum, a 505-amino acid protein; E. coli codon-optimised; the methods give 25-481; pET-32b vector; Results give 26-481, methods 25-481; also called TRX-His-PfPIMMS43; PSOP25; not shown: Thioredoxin (TRX), N-terminal, kept; His6, N-terminal, kept; His6, C-terminal, kept
T2 sequence (C6KT40 26-481): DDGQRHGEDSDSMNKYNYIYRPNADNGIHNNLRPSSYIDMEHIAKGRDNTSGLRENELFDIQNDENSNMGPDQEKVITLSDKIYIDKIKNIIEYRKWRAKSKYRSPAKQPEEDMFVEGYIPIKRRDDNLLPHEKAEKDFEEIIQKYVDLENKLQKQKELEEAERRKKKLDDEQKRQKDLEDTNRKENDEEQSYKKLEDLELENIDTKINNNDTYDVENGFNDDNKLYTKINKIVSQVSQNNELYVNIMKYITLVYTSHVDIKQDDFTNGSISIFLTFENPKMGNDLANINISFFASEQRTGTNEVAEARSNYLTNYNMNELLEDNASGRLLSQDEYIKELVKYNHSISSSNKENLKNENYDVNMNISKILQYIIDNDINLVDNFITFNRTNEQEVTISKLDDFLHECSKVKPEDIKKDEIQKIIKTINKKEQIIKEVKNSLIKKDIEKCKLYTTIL

Row | Binder | binding affinity (dose response ELISA) [nM]
2 | PfPIMMS43 nanobody A3 (VHH, llama VHH; From an immune llama library (Eurogentec, pQ81 phagemid); CDR2 of 7 amino acids) VHH: EVQLVESGGGLVQPGGSLRLSCAASGSIFDKNGMGWFRQPPGRQRELVASITTDGNKHYGDDAKGRFTISRDIAKKTAYLQMNSLKPEDTAVYYCATTRGNYYSKSPPPIYDYYYWGQGTQVTVSS | > 50
3 | PfPIMMS43 nanobody E5 (VHH, llama VHH; From an immune llama library (Eurogentec, pQ81 phagemid); CDR2 of 7 and CDR3 of 8 amino acids) VHH: EVQLVESGGGLVQAGGSLRLSCAASGIHFNFKAMAWYRQAPGKQRELVAAIAPDDDTNYADSVKGRFTISRDNAKNTVYLQMNSLKPEDTAVYYCNTRIRIDYWGQGTQVTVSS | 5
4 | PfPIMMS43 nanobody E2 (VHH, llama VHH; From an immune llama library (Eurogentec, pQ81 phagemid); CDR2 of 7 amino acids) VHH: EVQLVESGGGLVQAGGSLRLSCAASGLTFNGDSMGWFRQAPGKEREFVAAIRWNEVAYYADFVKGRFTISRDNAKNTVTLQMNSLKPEDTAVYYCGAGVRAYSYTTRLTSASEYTYWGQGTQVTVSS | 8
5 | PfPIMMS43 nanobody E1 (VHH, llama VHH; From an immune llama library (Eurogentec, pQ81 phagemid)) VHH: EVQLVESGGGLVQAGDSLRLSCAASDSTFSIYVMGWFRQAPGKEREFVAAITGSGGNTNYADSVKGRFTVSRDNAKHTVYLQMNSLKPEDAAVYYCAAGGSYSRSSLNYPYWGQGTQVTVSS | > 50
6 | PfPIMMS43 nanobody A5 (VHH, llama VHH; From an immune llama library (Eurogentec, pQ81 phagemid)) VHH: EVQLVESGGGLVQAGVSLRLSCAASGRSLSNYAMGWFRQAPGKEREFVASITGSGSSTYYLNSVKGRFIISKDNAKNTVYLQMNSLKPEDTAVYYCAADSTGVARYTNRYDYWGQGTRVTVSS | > 50
7 | PfPIMMS43 nanobody H6 (VHH, llama VHH; From an immune llama library (Eurogentec, pQ81 phagemid)) VHH: EVQLVESGGALVQAGNSLRLSCAASGRTFRSYVMGWFRQAPEKEREFVARIGWSAGSTYYTDSVKGRFTISRDDAKNTVYLQMNSLKPEDTAVYYCAAGRGYSDYDPSVGYGYWGQGTQVTVSS | > 50
8 | PfPIMMS43 nanobody B11 (VHH, llama VHH; From an immune llama library (Eurogentec, pQ81 phagemid)) VHH: EVQLVESGGGLVRAGDSLRLSCAASGTPLSSYTMGWFRQAPGKEREFVAASCWRGGSAYDADSIEGRFTISRDNAKNTVYLQMNSLKPEDTAVYYCAAVFAYICSSYGNRSPSRYGYWGQGTQVTVSS | > 50
9 | PfPIMMS43 nanobody C12 (VHH, llama VHH; From an immune llama library (Eurogentec, pQ81 phagemid)) VHH: EVQLVESGGGLVQAGGSLRLSCVDSGRTLSSYTMGWFRQAPGKEREFVAAVHYTGRRTYYADSVKGRFTISRDNDKNTVLLQMNSLKPEDTAVYYCAATEPPHSDYSTRLYNYHYWGQGTQVTVSS | 6
10 | PfPIMMS43 nanobody G9 (VHH, llama VHH; From an immune llama library (Eurogentec, pQ81 phagemid); CDR3 of 20 amino acids) VHH: EVQLVESGGGLVQAGGSLRLSCAASEGTFSDYGMGWFRQAPGKEREFVASISWSGGRTGYRSSVKGRFTISRDNAKNTVYLQMNSLKPEDTAVYYCGAMSKYYRGDWSSRVTNYDDWGQGTQVTVSS | 3
